The values that follow come from patent US7115262.

Assay [1] addresses wildtype (WT) SF162 Env (HIV-1 (SF162)) (UniProt P19550). As to the kind of experiment: cell-based or functional assay.
For assay [2], the target named is HIV-1 Env (LAV) (HIV-1 (LAV)) (UniProt P03377). Briefly: cell-based or functional assay.

In assay [1], “soluble CD4 (from UniProt P01730 26-208) (receptor)” displayed a β-gal activity, vaccinia-based reporter gene cell fusion assay, +sCD4 (100 nM), CCR5 target cells without CD4; WT Env duplicate of 6.6 and a β-gal activity, vaccinia-based reporter gene cell fusion assay, +sCD4 (100 nM), CCR5 target cells without CD4; WT Env mean of 5.9.
As to MAb 17b (antibody), in assay [2], the % control, Standard Assay (CXCR4 and CD4 on target cells), 17b at 0.1 µg/ml was 93.4 % control; the % control, Standard Assay (CXCR4 and CD4 on target cells), 17b at 0.5 µg/ml worked out at 104 % control; the % control, Standard Assay (CXCR4 and CD4 on target cells), 17b at 1 µg/ml stood at 94.1 % control; the % control, Standard Assay (CXCR4 and CD4 on target cells), 17b at 5 µg/ml worked out at 119 % control. In assay [2], this substance registered a % control, sCD4 Assay (CXCR4 alone on target cells, 200 nM soluble CD4 added), 17b at 0.1 µg/ml of 114 % control; a % control, sCD4 Assay (CXCR4 alone on target cells, 200 nM soluble CD4 added), 17b at 0.5 µg/ml of 39.2 % control; a % control, sCD4 Assay (CXCR4 alone on target cells, 200 nM soluble CD4 added), 17b at 1 µg/ml of 14.1 % control; a % control, sCD4 Assay (CXCR4 alone on target cells, 200 nM soluble CD4 added), 17b at 5 µg/ml of 0 % control. In assay [2], this substance registered a β-gal, Standard Assay (CXCR4 and CD4 on target cells), 17b at 0.1 µg/ml of 39.5; a β-gal, Standard Assay (CXCR4 and CD4 on target cells), 17b at 0.5 µg/ml of 43.9; a β-gal, Standard Assay (CXCR4 and CD4 on target cells), 17b at 1 µg/ml of 39.8; a β-gal, Standard Assay (CXCR4 and CD4 on target cells), 17b at 5 µg/ml of 50.5. Moreover, in assay [2], the β-gal, sCD4 Assay (CXCR4 alone on target cells, 200 nM soluble CD4 added), 17b at 0.1 µg/ml was 13.6; the β-gal, sCD4 Assay (CXCR4 alone on target cells, 200 nM soluble CD4 added), 17b at 0.5 µg/ml came to 4.66; the β-gal, sCD4 Assay (CXCR4 alone on target cells, 200 nM soluble CD4 added), 17b at 1 µg/ml stood at 1.68; the β-gal, sCD4 Assay (CXCR4 alone on target cells, 200 nM soluble CD4 added), 17b at 5 µg/ml is 0.
